Data reported in patent US7563610 (Takeda / Millennium, dated 2009).

Molecular target: the molecule itself
Experiment: X-ray crystal structure (homodimer in the asymmetric unit)

B1: IspA (farnesyl pyrophosphate synthase) from E. coli, full length with non-cleavable N-terminal six histidine tag (enzyme)
chain: MGSDKIIHHHHHHTLMDFPQQLEACVKQANQALSRFIAPLPFQNTPVVETMQYGALLGGKRLRPFLVYATGHMFGVSTNTLDAPAAAVECIHAYSLIHDDLPAMDDDDLRRGLPTCHVKFGEANAILAGDALQTLAFSILSDADMPEVSDRDRISMISELASASGIAGMCGGQALDLDAEGKHVPLDALERIHRHKTGALIRAAVRLGALSAGDKGRRALPVLDKYAESIGLAFQVQDDILDVVGDTATLGKRQGADQQLGKSTYPALLGLEQARKKARDLIDDARQSLKQLAEQSLDTSALEALADYIIQRNK
notes: Two copies form the dimer in the crystal; also called FPPS
binding result: binds
